Measurements from patent US20250145716A1 (RAKUTEN MEDICAL, published 2025).

Legend:
[1] = molecular target: T1, 6xHis-tagged huPD-L1 (human, UniProt Q9NZQ7 19-238); experiment: ELISA, plate-coated 6xHis huPD-L1, A450
T1 construct: also called human PD-L1 (RD Systems 9049-B7); extracellular domain of human PD-L1 fused to a His tag; not shown: 6xHis tag
Protocol: (§1) Hybridoma supernatants were tested for binding to huPD-L1, cyPD-L1, and muPD-L1 by ELISA. Briefly, 30 μL 6xHis-tagged huPD-L1, cyPD-L1, or muPD-L1 (1 μg/mL in PBS) were immobilized in wells of a 96-well assay plate overnight at 4° C. After washing and blocking steps, 30 μL of antibody supernatant were added to the plate and incubated at room temperature for 1 hr. Bound human antibody was detected using horseradish peroxidase (HRP)-conjugated goat anti-human Fc (Invitrogen Cat. No. 109-035-097; diluted 1:5000) or goat anti-mouse Fc HRP (Invitrogen Cat. No. 115-035-071) as a control. Bound antibody was detected with 1-Step Ultra™ TMB-ELISA Substrate (ThermoFisher Scientific Cat. No. 34029). When the reaction was complete the reaction was stopped, and the plate was read at 450 nm.
(§2) Anti-PD-L1 antibodies, described in Example 1A and manufactured substantially as described in Example 1B, were tested for to huPD-L1 and cyPD-L1 by ELISA substantially as described in Example 1A, using 12 dilutions of antibody ranging from 1 ng/ml to 3 mg/mL.

[2] = molecular target: T2, 6xHis-tagged cyPD-L1 (cynomolgus monkey, UniProt Q9NZQ7 19-238 (human entry)); experiment: ELISA, plate-coated 6xHis cyPD-L1, A450
T2 construct: The assay text says only '6xHis-tagged cyPD-L1'; also called cynomolgus PD-L1; not shown: 6xHis tag
T2 sequence (Q9NZQ7 other isoform, or with tags, fused parts or gaps): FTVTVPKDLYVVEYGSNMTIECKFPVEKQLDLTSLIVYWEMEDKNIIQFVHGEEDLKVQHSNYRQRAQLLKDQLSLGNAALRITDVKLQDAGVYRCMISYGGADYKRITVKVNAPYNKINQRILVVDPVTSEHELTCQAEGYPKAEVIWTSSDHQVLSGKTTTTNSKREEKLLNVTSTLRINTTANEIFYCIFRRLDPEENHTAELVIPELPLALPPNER
Protocol: as §1, §2

[3] = molecular target: T3, human PD-L1 expressed on cells (human, UniProt Q9NZQ7 19-290); experiment: flow cytometry, PD-L1-expressing CHO cells, MFI (FITC)
T3 construct: whole, on cells; One entry covers all human PD-L1-bearing cells; also called huPD-L1 on CHO cells (CHO-hPD-L1); PD-L1 on A431 cells
T3 sequence (Q9NZQ7 19-290): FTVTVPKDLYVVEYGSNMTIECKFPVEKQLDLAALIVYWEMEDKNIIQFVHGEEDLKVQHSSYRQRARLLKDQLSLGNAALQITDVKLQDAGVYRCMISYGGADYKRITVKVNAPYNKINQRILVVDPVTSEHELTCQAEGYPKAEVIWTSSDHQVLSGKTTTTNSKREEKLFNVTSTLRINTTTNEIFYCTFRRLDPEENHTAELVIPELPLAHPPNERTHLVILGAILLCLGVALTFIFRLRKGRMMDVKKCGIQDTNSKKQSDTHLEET
Protocol: Wild-type (wt) Chinese hamster ovary (CHO) cells (ATCC) and CHO cells engineered to express huPD-L1 (BPS Bioscience) were seeded at 200,000 cells in 50 μL FACS buffer (PBS containing 1% FBS and 5 mM EDTA) per well of a 96-well plate. Cell viability was assessed by adding 50 μL 2×Zombie Violet (BioLegend). Dead cell controls were also prepared and 2×Zombie violet was added. After incubating 20-30 minutes at room temperature, protected from light, 150 μL FACS buffer were added to each well. The plates were centrifuged, and the supernatant was aspirated. […] The plates were incubated 30 minutes on ice, protected from light. 150 μL FACS buffer were then added to each well and the plate was centrifuged. The supernatant was removed and the cells were washed three times in 200 μL FACS buffer. […] The cells were incubated 30 minutes on ice, protected from light. 150 μL FACS buffer were then added to each well and the plate was centrifuged. Supernatant was removed and the cells were washed twice with 200 μL FACS buffer. The cells were then resuspended in FACS buffer and analyzed by CytoFLEX using the appropriate channels. After gating for whole, single, live cells, the MFI in the APC channel (or FITC channel for human control samples) was normalized to the signal from hybridoma media alone (or isotype control for human control). MFI fold over media alone was determined for each clone supernatant tested.

T1 sequence (Q9NZQ7 19-238): as the sequence (Q9NZQ7 other isoform, or with tags, fused parts or gaps) above, with T33A, S34A, N62S, Q68R, R82Q, L173F, A185T, I192T, L215H counted along it

Binder | Absolute IC50 [1] [ng/mL] | Absolute IC50 [2] [ng/mL] | EC50 [3] [µg/mL] | binding result [1]
2M1 (antibody, V domains shown) VH: EVQLVESGGGLVKPGGSLRLSCAASGFTFSSYTMNWVRQAPGKGLEWVSSITSSTSYIYYADSVKGRFTISRDNAKNSLYLQMNSLRAEDTSVYYCVRDWSIAARGAWFDPWGQGTLVTVSS VL: DIQMTQSPSSVSASVGDRVTITCRASQGIGSWLAWYQQKPGKAPKFLIYAASSLQGGVPSRFSGSGSGTDFTLTISSLQPEDFATYYCQQANSFPLTFGGGTKVEIK | 428 | 559 |  | 
1P9 with effector knockout mutations L234F/L235E/P331S (antibody, V domains shown, Same variable regions as 1P9; also called 1P9-EKO; 1P9 (L234F/L235E/P331S)) VH: EVQLVESGGGLVQPGGSLRLSCAASGFTFSTYWMSWVRQAPGKGLEWVANIKQDGGERYYVDSVKGRFTISRDNAKSSLYLQMNSLRAEDTALYYCARLRLYSDYEDYWGQGTLVTVSS VL: DIQMTQSPSSVSASVGDRVTITCRASQGISSWLAWYQQKPGKAPKLLIYSVSSLQSGVPSRFSGSGSGTDFTLTISSLQPEDSATYYCQQANSLPPTFGGGTKVEIK |  |  | 0.0186 | 
2M3 (antibody, V domains shown) VH: EVQLVESGGGFVQTGGSLRLSCAASGFNFRSYDMHWVRQVIGKGLEWVSGIGPGGDTYYPGSVKGRFTISRENAKNSLYLQMNSLRAGDTAVYYCAREQFEGHYFDYWGQGTLVTVSS VL: DIQMTQSPSSVSASVGDRVNITCRASQGISSWLAWYQQKPWKAPKLLIYTASSLQSGVPSRFSGSGSGTDFTLTISSLQPEDFATYYCQQANSFPITFGQGTRLEIK | 788 | 672 |  | 
1P9-EKO-IR700 conjugate (antibody, V domains shown, IRDye 700DX (IR700) attached via NHS ester; sites not stated; IRDye 700DX (IR700) attached via NHS ester; sites not stated; DAR 2.5 per antibody, also called 1P9-EKO (conjugate); anti-PD-L1-IR700 conjugate with effector knock-out Fc region) VH: EVQLVESGGGLVQPGGSLRLSCAASGFTFSTYWMSWVRQAPGKGLEWVANIKQDGGERYYVDSVKGRFTISRDNAKSSLYLQMNSLRAEDTALYYCARLRLYSDYEDYWGQGTLVTVSS VL: DIQMTQSPSSVSASVGDRVTITCRASQGISSWLAWYQQKPGKAPKLLIYSVSSLQSGVPSRFSGSGSGTDFTLTISSLQPEDSATYYCQQANSLPPTFGGGTKVEIK |  |  | 0.0174 | 
2M2 (antibody, V domains shown) VH: QVQLVQSGAEVKKPGASVKVSCKASGYTFTNYGISWVRQAPGQGLEWMGWISAYNGHTNYAQKVQGRVTMTTDTSTSTAFMELRSLRSDDSAVYYCARGTSGDYWGQGTLVTVSS VL: not shown | 83.8 | 166 |  | 
3B6 (antibody, V domains shown) VH: EVKLVESGGGLVQPGGSLRLSCGTSGFTFSDFYVEWVRQPPGKRLEWIAASRNKVNDYTTEYSESVKGRFIVSRDTSQNILYLQMNALRAEDSAIYYCARNVPWDGWYFDVWGAGTAVTVSS VL: DIVMTQSQKFMSTSVGDRVSITCKASQNVRTAVAWFQQKPGQSPKALIYLASTRHTGVPDRFTGSGSGTDFTLTISNVQSEDLADYFCLQHWNYPRTFGGGTKLEIK | 330 | 246 |  | 
2M5 (antibody, V domains shown) VH: EVQLVESGGGLVKPGGSLRVSCAASGFTLSSYSMNWVRQAPGKGLEWVSSISSSSSYIYYADSVKGRFTISRDNAKNLLYLQMNSLRAEDTAVYYCAREGGAARPSWFDPWGQGTLVTVSS VL: QAVVTQESALTTSPGETVTLTCRSSTGAVTTSNYANWVQEKPDHLFTGLIGGTNNRAPGVPARFSGSLIGDKAALTITGAQTEDEAIYFCALWYRNHWVFGGGTKLTVL | 788 | 234 |  | 
1P4 with effector knockout (EKO) mutations L234F/L235E/P331S (antibody, V domains shown, Same variable regions as 1P4; also called 1P4-EKO; 1P4 (L234F/L235E/P331S)) VH: QVQLVESGGGVVQPGRSLRLSCAASGFTFSNYGMHWVRQAPGKGLEWVSLILYDGSNKYYADSVKGRFTISRDNSKNTLYLQMNSLRAEDTAVYYCARDRVWLDVWGKGTTVTVSS VL: not shown |  |  | 0.0455 | 
1P4-EKO-IR700 conjugate (antibody, V domains shown, IRDye 700DX (IR700) attached via NHS ester; sites not stated; IRDye 700DX (IR700) attached via NHS ester; sites not stated; DAR 2.7 per antibody, also called 1P4-EKO (conjugate); anti-PD-L1-IR700 conjugate with effector knock-out Fc region) VH: QVQLVESGGGVVQPGRSLRLSCAASGFTFSNYGMHWVRQAPGKGLEWVSLILYDGSNKYYADSVKGRFTISRDNSKNTLYLQMNSLRAEDTAVYYCARDRVWLDVWGKGTTVTVSS VL: not shown |  |  | 0.145 | 
3B1 (antibody, V domains shown) VH: QIQLVQSGPELKKPGETVKISCKASGYDFTNYGMNWVKQAPGKGLKWMGYINTYTGEPAYADDFKGRFAFSLETSARTAYLRINNLKNEDTATYFCATRAYYGHYLAYWGQGTLVTVSA VL: DVLMTQTPLSLPVSLGDQASISCRSSQRIVHSNGNTYLEWYLQKPGQSPKLLIYKVSNRFSGVPDRFSGSGSGTDFTLKISRVEAEDLGVYYCFQGSHVPYTFGGGTKLEIK | 49.8 | 56.9 |  | 
3B5 (antibody, V domains shown) VH: QIQLVQSGPELKKPGETVKISCKASGYDFTNYGMNWVKQAPGKGLKWMGYINTYTGEPAYADDFKGRFAFSLETSARTAYLRINNLKNEDTATYFCATRAYYGHYLAYWGQGTLVTVSA VL: QIVLTQSPAIMSASPGEKVTITCSASSSVSYMHWFQQKPGTSPKLWIYSTSNLASGVPARFSGSGSGTSYSLTISRMEAEDAATYYCQQRSSYPFTFGSGTKLEIK |  | 325 |  | binds
3B2 (antibody, V domains shown) VH: EVQLQESGPSLVKPSQTLSLTCSVTGDSITSGYWNWIRKFPGNKLEYMGYISYTGSTYYNPSLKSRISITRDTSKNQYYLQLDSVTTEDTATYYCARKGGWLLPFAYWGQGTLVTVSA VL: not shown | 225 | 341 |  | 
3B4 (antibody, V domains shown) VH: EVQLQESGPSLVKPSQTLSLTCSVTGDSITSGYWNWIRKFPGNKLESMGYISYTGSTYYNPSLKSRLSITRDTSKNQFYLQLNSVTTEDTATYYCASGLLWLAWFAYWGQGTLVTVSA VL: DIVMSQSPSSLAVSVGEKVTMSCKSSQSLLYSSNQKNSLAWYQQKPGQSPKLLIYWASTRESGVPDRFTGSGSGTDFTLTISSVRAEDLAVYYCQQYYGYPFTFGGGTKLEIK | 152 | 106 |  | 
